Substrate in the data set: Oc1ccc(/C=C/c2cc(O)cc(O)c2)cc1
Kind of data set: purified protein. The conditions noted are these: PBS pH 7.4, 30 °C, 10 min, 10 uM FAD, 1 mM NADH, 1 uM HpaB, 1 uM HpaC, apparent.

B1: EcHpaBC (E. coli 4HPA3H; HpaB + HpaC) (Escherichia coli) (protein)
chain: MKPEDFRASTQRPFTGEEYLKSLQDGREIYIYGERVKDVTTHPAFRNAAASVAQLYDALHKPEMQDSLCWNTDTGSGGYTHKFFRVAKSADDLRHERDAIAEWSRLSYGWMGRTPDYKAAFGCALGGTPGFYGQFEQNARNWYTRIQETGLYFNHAIVNPPIDRHLPTDKVKDVYIKLEKETDAGIIVSGAKVVATNSALTHYNMIGFGSAQVMGENPDFALMFVAPMDADGVKLISRASYEMVAGATGSPYDYPLSSRFDENDAILVMDNVLIPWENVLLYRDFDRCRRWTMEGGFARMYPLQACVRLAVKLDFITALLKKSLECTGTLEFRGVQADLGEVVAWRNTFWALSDSMCSEATPWVNGAYLPDHAALQTYRVLAPMAYAKIKNIIERNVTSGLIYLPSSARDLNNPQIDQYLAKYVRGSNGMDHVQRIKILKLMWDAIGSEFGGRHELYEINYSGSQDEIRLQCLRQAQSSGNMDKMMAMVDRCLSEYDQNGWTVPHLHNNDDINMLDKLLK
A word on the Km: it is the substrate concentration at which the rate is half of its maximum. As a reminder, the kcat is the number of substrate molecules converted per active site and unit of time at saturation. For orientation: kcat/Km means the turnover number divided by the Michaelis constant. For the protein B1, the Km is 670 ± 120 µM, the kcat stood at 0.0135 s⁻¹ and the kcat/Km was determined as 20 M⁻¹ s⁻¹.

Values taken from publication PMC10384689.
